Laboratory results: US20250092426, “CAS ENDONUCLEASES AND RELATED METHODS” (Flagship Pioneering Innovations VII, LLC, published 2025)

Biological target: T1, CasEnd-4 (synthetic construct)
T1 chain: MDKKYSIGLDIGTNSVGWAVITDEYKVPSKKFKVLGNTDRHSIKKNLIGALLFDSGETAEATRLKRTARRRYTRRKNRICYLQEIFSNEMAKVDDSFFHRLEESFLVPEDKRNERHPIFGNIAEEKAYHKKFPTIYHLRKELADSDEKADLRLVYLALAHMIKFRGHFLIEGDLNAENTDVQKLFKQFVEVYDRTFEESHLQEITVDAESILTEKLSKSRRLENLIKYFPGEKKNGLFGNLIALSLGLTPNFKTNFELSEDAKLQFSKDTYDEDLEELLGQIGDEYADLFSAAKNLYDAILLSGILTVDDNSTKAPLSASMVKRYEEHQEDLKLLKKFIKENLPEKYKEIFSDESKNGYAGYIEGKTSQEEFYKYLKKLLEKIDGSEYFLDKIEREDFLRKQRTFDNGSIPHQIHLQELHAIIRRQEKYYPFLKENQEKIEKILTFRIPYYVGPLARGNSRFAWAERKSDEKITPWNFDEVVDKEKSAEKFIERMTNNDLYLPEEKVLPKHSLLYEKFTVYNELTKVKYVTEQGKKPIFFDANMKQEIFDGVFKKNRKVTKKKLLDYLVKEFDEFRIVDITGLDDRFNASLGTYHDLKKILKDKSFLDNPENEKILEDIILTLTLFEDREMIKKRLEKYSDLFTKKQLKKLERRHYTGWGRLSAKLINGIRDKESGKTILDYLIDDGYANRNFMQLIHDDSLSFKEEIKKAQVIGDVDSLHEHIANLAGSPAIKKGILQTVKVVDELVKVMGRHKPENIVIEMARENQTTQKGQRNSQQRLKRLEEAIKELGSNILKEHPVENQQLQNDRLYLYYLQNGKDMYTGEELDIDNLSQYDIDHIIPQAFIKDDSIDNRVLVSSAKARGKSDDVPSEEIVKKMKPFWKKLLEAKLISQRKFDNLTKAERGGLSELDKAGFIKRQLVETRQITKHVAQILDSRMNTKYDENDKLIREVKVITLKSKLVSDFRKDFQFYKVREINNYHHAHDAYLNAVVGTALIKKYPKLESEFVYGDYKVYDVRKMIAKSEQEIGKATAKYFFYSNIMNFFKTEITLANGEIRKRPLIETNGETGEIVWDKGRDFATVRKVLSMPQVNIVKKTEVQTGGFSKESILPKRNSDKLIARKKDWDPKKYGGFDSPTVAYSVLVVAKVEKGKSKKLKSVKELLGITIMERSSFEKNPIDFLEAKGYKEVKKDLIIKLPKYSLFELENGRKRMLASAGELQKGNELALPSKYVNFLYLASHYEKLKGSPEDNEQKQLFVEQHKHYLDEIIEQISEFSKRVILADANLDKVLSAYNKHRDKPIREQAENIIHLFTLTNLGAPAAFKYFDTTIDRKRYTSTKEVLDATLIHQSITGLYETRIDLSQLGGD
Assay: cell_activity; +++; HEK293T; PAM not stated
Outline: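 BFP-to-GFP conversion via reverse transcriptase fusion with each Cas endonuclease plus template RNA: 200 ng of each plasmid nucleofected into 250,000 BFP-expressing HEK293T cells (program DS-150). Percent GFP+ cells by flow cytometry at day 4 measured editing.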

B1: BFP-to-GFP template RNA ; BFP reporter protospacer (ssRNA ; dsDNA)
RNA: GCCGAAGCACUGCACGCCGUGUUUUAGAGCUAGAAAUAGCAAGUUAAAAUAAGGCUAGUCCGUUAUCAACUUGAAAAAGUGGCACCGAGUCGGUGCACCCUGACGUACGGCGUGCAGUGCUU
DNA 1: GCCGAAGCACTGCACGCCGT
DNA 2: ACGGCGTGCAGTGCTTCGGC
activity: ≥ 100 % of reference
